The values that follow are results of earlier work, collected in article PMC4857727.

The target in data set [1] is Syndecan peptide (Homo sapiens) (UniProt P31431).
Data set [2] addresses IL5R-alpha peptide (Homo sapiens) (UniProt Q01344).
Chain of UniProt Q01344 (Q01344 21-420): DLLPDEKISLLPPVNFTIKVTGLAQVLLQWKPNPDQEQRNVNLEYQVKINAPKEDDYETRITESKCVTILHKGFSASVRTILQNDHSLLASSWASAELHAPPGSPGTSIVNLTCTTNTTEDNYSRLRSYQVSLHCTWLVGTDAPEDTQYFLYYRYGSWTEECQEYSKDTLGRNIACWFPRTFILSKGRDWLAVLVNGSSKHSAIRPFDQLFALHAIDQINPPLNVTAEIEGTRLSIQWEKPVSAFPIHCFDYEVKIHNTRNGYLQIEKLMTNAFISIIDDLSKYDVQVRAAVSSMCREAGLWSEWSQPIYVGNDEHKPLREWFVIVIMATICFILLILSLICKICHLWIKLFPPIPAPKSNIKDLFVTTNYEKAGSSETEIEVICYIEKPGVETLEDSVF

Chain of UniProt P31431 (P31431 19-198): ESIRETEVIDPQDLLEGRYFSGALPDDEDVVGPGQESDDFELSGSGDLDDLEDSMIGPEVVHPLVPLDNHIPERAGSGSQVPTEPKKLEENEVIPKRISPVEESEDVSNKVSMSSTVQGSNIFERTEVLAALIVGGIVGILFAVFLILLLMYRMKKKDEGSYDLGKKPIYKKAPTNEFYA

For the substance Syntenin PDZ2 (from UniProt O00560), the values for the Kd in data set [1] and in data set [2] were 2.9 µM and 43.8 µM, respectively.

One may read the Kd as a measure of binding affinity in units of concentration.
